Experiment [1] addresses T1, T. brucei canonical histone H2A (T. brucei brucei, UniProt Q57YA3 2-134).
T1 construct: Canonical histone H2A of Trypanosoma brucei brucei, Tb927.7.2820, pET21a plasmid from the Janzen lab; also called Tb H2A
T1 sequence: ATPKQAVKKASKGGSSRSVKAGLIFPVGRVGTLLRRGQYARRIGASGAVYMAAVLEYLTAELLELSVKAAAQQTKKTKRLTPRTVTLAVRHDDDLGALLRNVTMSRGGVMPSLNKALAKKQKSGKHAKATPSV
Description: cryo-EM structure; H3.V-H4.V NCP (H2A, H2B, H3.V, H4.V) wrapped with Widom 601 145 bp DNA, crosslinked with 0.05% glutaraldehyde, separated by SEC; grids in 10 mM Tris pH 8.0, 30 mM NaCl, 1 mM EDTA, 1 mM DTT; global resolution 3.2 Å. As to conditions: both partners purified. In general terms: In gel filtration, larger molecules generally elute earlier.

Experiment [2] addresses T2, T. brucei canonical histone H3 (T. brucei brucei, UniProt Q4GYX7 2-133).
T2 construct: Canonical histone H3 of Trypanosoma brucei brucei, Tb927.1.2430, pET21a plasmid from the Janzen lab; also called Tb H3
Description: in vitro reconstitution of histone octamers and nucleosomes (SEC, native PAGE, SDS-PAGE); purified histones combined at a 1.2:1.2:1:1 H2A:H2B:H3(V):H4(V) molar ratio, dialysed into 2 M NaCl Octamer Buffer, octamers purified on Superdex200; wrapped with Widom 601 145 bp, Widom 603 177 bp or Widom 603 193 bp DNA by salt gradient dialysis; checked by native and SDS PAGE. To be noted: both partners purified.

B1: T. brucei canonical histone H2B (natural protein, T. brucei brucei)
chain: ATPKSTPAKTRKEAKKTRRQRKRTWNVYVSRSLRSINSQMSMTSRTMKIVNSFVNDLFERIAAEAATIVRVNRKRTLGARELQTAVRLVLPADLAKHAMAEGTKAVSHASS
notes: Canonical histone H2B of Trypanosoma brucei brucei, Tb927.10.10480, pET21a plasmid from the Janzen lab; also called Tb H2B
B1: in experiment [1], the binding result was “binds”.

B2: T. brucei canonical histone H4 (natural protein)
chain: not shown
notes: Canonical histone H4 of Trypanosoma brucei brucei, Tb927.5.4170, pET21a plasmid from the Janzen lab; also called Tb H4
With B2, the binding result in experiment [2] is on record as “binds”.

Values taken from paper doi:10.1101/2025.09.24.678203 (bioRxiv, 2025).
